The source of these data is patent US20210403579A1 (DELINIA, published 2021).

Numbering of substitutions follows the chain as printed.

T1: Human ST2 (human, UniProt Q01638 19-328, limits assumed)
T1 construct: also called human ST2 protein; Interleukin 1 receptor-like 1
T1 sequence (looked up): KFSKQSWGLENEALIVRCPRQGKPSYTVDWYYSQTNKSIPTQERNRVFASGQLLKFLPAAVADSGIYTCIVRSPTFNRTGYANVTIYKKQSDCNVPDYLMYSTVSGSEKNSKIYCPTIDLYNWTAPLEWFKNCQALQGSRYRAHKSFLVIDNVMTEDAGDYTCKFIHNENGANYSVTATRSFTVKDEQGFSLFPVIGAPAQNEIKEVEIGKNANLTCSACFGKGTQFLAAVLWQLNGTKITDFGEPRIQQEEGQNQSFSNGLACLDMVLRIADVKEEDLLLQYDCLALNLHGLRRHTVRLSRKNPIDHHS

B1: Human ST2 IgG1 Antibody 64 (antibody, V domains shown)
VH: QVQLVQSGAEVKKPGSSVKVSCKASGYFFTSYGISWVRQAPGQGLEWMGGVIPISGTANYAQSFQGRVTITADESTSTAYMELSSLRSEDTAVYYCARDENGAFDIWGQGTTVTVSS
VL: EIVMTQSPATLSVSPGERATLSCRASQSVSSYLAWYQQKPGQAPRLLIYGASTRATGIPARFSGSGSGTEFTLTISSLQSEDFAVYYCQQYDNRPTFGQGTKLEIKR
notes: IgG1; also called ST2 Antibody 64
B2: Human ST2 IgG1 Antibody 62 (antibody, V domains shown)
VH: QVQLVQSGAEVKKPGSSVKVSCKASGYIFTNYWIQWVRQAPGQGLEWMGGIIPIFETANYAQKFQGRVTITADDSTSTAYMELSSLRSEDTAVYYCARLGDRGDFDYWGQGTLVTVSS
VL: DIVMTQSPDSLAVSLGERATINCKSSQSISHSPNTRDYLAWYQQKPGQPPKLLIYWASTRESGVPDRFSGSGSGTDFTLTISSLQAEDVAVYYCQQYYRFPLAFGQSTKVEIKR
notes: IgG1; also called ST2 Antibody 62
B3: Human ST2 IgG1 Antibody 58 (antibody, V domains shown)
VH: EVQLLESGAEVKKPGSSVKVSCKASGGTFSSYAISWVRQAPGQGLEWMGGIIPIFGTANYAQKFQGRVTITADKSTSTAYMELSSLRSEDTAVYYCARPRLAVAGGWYFDLWGRGTLVTVSS
VL: DIQMTQSPSSLSASVGDRVTITCQASQDISNYLNWYQQKPGKAPKLLIYAASSLQSGVPSRFSGSGSGTDFTLTISSLQPEDFATYYCQQSFSSTPTFGQGTKLEIKR
notes: IgG1; also called ST2 Antibody 58
B4: Human ST2 IgG1 Antibody 68 (antibody, V domains shown)
VH: QVQLVQSGAEVKKPGSSVKVSCKASGGTFSSYAISWVRQAPGQGLEWMGGIIPVVGSPDYAQRFQGRVTITADESTSTAYMELSSLRSEDTAVYYCARHSIVGATATSMDVWGKGTTVTVSS
VL: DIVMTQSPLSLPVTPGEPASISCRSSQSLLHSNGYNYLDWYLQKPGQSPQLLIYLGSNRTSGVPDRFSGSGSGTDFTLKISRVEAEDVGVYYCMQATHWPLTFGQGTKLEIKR
notes: IgG1; also called ST2 Antibody 68
B5: Human ST2 IgG1 Antibody 59 (antibody, V domains shown)
VH: EVQLLESGGGVVQPGRSLRLSCAASGFTFSSYWMSWVRQAPGKGLEWVSSISSDSSYKYYADSVKGRFTISRDNSKNTLYLQMNSLRAEDTAVYYCARDGLRWDAFDIWGQGTMVTVSS
VL: not shown
notes: IgG1; also called ST2 Antibody 59
B6: Human ST2 IgG1 Antibody 73 (antibody, V domains shown)
VH: EVQLLESGGGLVQPGGSLRLSCAASGFAFSSHWMHWVRQAPGKGLEWVAVISYDGSNKYYADSVKGRFTISRDNSKNTLYLQMNSLRAEDTAVYYCARDRGMIDYWGQGTLVTVSS
VL: DIQMTQSPSSLSASVGDRVTITCRASQGIGSWLAWYQQKPGKAPKLLIHAATKLQTGVPSRFSGSGSGTDFTLTISSLQPEDFATYYCQQSYSTPFTFGPGTKVDIKR
notes: IgG1; also called ST2 Antibody 73
B7: Human ST2 IgG1 Antibody 61 (antibody, V domains shown)
VH: QVQLVQSGAEVKKPGSSVKVSCKASGGTFSNYAISWVRQAPGQGLEWMGGIIPVFGTATYAQKFQGRVTITADESTSTAYMELSSLRSEDTAVYYCARVTAMGVGWYFDLWGRGTLVTVSS
VL: DIVMTQSPLSLPVTPGEPASISCRSSQSLLHSNGYNYLDWYLQKPGQSPQLLIYAASSLQSGVPDRFSGSGSGTDFTLKISRVEAEDVGVYYCMQSLQTPPTFGQGTKLEIKR
notes: IgG1; also called ST2 Antibody 61
B8: Human ST2 IgG1 Antibody 66 (antibody, V domains shown)
VH: QVQLVQSGAEVKKPGSSVKVSCKASGGTFSSNAISWVRQAPGQGLEWMGGIIPIFGTANYAQKFQGRVTITADESTSTAYMELSSLRSEDTAVYYCAGSPTGTPRVVFDYWGQGTLVTVSS
VL: B7 VL with S96A, P101I, K108R
notes: IgG1; also called ST2 Antibody 66
B9: Human ST2 IgG1 Antibody 69 (antibody, V domains shown)
VH: QVQLVQSGAEVKKPGASVKVSCKASGYTFSDYYVHWVRQAPGQGLEWMGWISAYNGNTNYAQKLQGRVTMTRDTSTSTVYMELSSLRSEDTAVYYCARGSLDIWFREPGVYMDVWGKGTTVTVSS
VL: B7 VL with S96A, P101I, L109V
notes: IgG1; also called ST2 Antibody 69
B10: Human ST2 IgG1 Antibody 63 (antibody, V domains shown)
VH: QVQLVQSGAEVKKPGSSVKVSCKASGGTFSSDAINWVRQAPGQGLEWMGGIVPAFGTANYAQKFQGRVTITADESTSTAYMELSSLRSEDTAVYYCARSSSSWPYYYYYMDVWGKGTTVTVSS
VL: B7 VL with H31L, S32N, Y35N, Y37F, L38I, S58I, S61G, S96A, L109V
notes: IgG1; also called ST2 Antibody 63
B11: Human ST2 IgG1 Antibody 57 (antibody, V domains shown)
VH: QVQLVQSGAEVKKPGASVKVSCKASGYTFTGYYMHWVRQAPGQGLEWMGVINPSGGSTSYAQKFQGRVTMTRDTSTSTVYMELSSLRSEDTAVYYCARGDYYYGSGSDYYYYYGMDVWGQGTLVTVSS
VL: DIQMTQSPSSLSASVGDRVTITCRASQGVTSWLAWYQQKPGKAPKLLIYAASTLQSGVPSRFSGSGSGTDFTLTISSLQPEDFATYYCQQANSFPLTFGGGTKVEIKR
notes: IgG1; also called ST2 Antibody 57
B12: Human ST2 IgG1 Antibody 71 (antibody, V domains shown)
VH: QVQLVQSGAEVKKPGASVKVSCKASGGTFSNYGVSWVRQAPGQGLEWMGGINPSRGTTTYAQKFQGRVTMTRDTSTSTVYMELSSLRSEDTAVYYCAKGDIVVVPAAMFSLGPGYYYYMDVWGKGTTVTVSS
VL: B3 VL with Q24R, D28S, N31S, S91A, F92N, S94F, T95P, P96I
notes: IgG1; also called ST2 Antibody 71
B13: Human ST2 IgG1 Antibody 60 (antibody, V domains shown)
VH: QVQLVQSGAEVKKPGASVKVSCKASGYTFTDHYLHWVRQAPGQGLEWMGIINPSGGYTSHAQKFQGRVTMTRDTSTSTVYMELSSLRSEDTAVYYCARDRFRELLGSRYYGMDVWGQGTTVTVSS
VL: B11 VL with G28D, V29L, T30S, S31N, W32H, A91Y, N92H, S93D, F94W, G100Q
notes: IgG1; also called ST2 Antibody 60
B14: Human ST2 IgG1 Antibody 72 (antibody, V domains shown)
VH: EVQLLESGGGLVQPGGSLRLSCAASGFTFSSYGMSWVRQAPGKGLEWLAVIWSDGGHKYYADSVKGRFTISRDNSKNTLYLQMNSLRAEDTAVYYCAREVRGWFDPWGQGTLVTVSS
VL: DIQMTQSPSSLSASVGDRVTITCRASENIGTWLAWYQQKPGKAPKLLIYKASSLDSGVPSRFSGSGSGTDFTLTISSLQPEDFATYYCQQSYSTPYTFGQGTKLEIKR
notes: IgG1; also called ST2 Antibody 72
B15: Human ST2 IgG1 Antibody 74 (antibody, V domains shown)
VH: EVQLLESGGGLVQPGGSLRLSCAASGFTFSSYWMSWVRQAPGKGLEWVSSISSSSSYIYYADSVKGRFTISRDNSKNTLYLQMNSLRAEDTAVYYCARDQGWFDPWGQGTLVTVSS
VL: B14 VL with E27R, N28A, T31N, W32N, A34S, K50T, D55Q, L104V
notes: IgG1; also called ST2 Antibody 74
B16: Human ST2 IgG1 Antibody 56 (antibody, V domains shown)
VH: EVQLLESGGGLVKPGGSLRLSCAASGFTFSSYAMSWVRQAPGKGLEWVSSISSDSYYKYHADSVKGRFTISRDDSKNTLYLQMNSLKTEDTAVYYCAKGADYDFWSGYLDYWGQGTLVTVSS
VL: DIQMTQSPSSLSASVGDRVTITCRASQGISSYLAWYQQKPGKAPKLLIYRASTLQSGVPSRFSGSGSGTDFTLTISSLQPEDFATYYCQQSYNTPWTFGQSTKVEIKR
notes: IgG1; also called ST2 Antibody 56
B17: Human ST2 IgG1 Antibody 67 (antibody, V domains shown)
VH: QVQLVQSGAEVKKPGASVKVSCKASGGTFSSYAISWVRQAPGQGLEWMGRINPNSGGTVYAQKFQGRVTMTRDTSTSTVYMELSSLRSEDTAVYYCARDTSIAARLNPDYYYYYGMDVWGQGTTVTVSS
VL: B16 VL with G28S, Y32W, R50A, T53N, N93S, W96V, K103R, V104L
notes: IgG1; also called ST2 Antibody 67
B18: Human ST2 IgG1 Antibody 70 (antibody, V domains shown)
VH: QVQLVQSGAEVKKPGSSVKVSCKASGYAFTDYFIHWVRQAPGQGLEWMGGIIPIFGTANYAQKFQGRVTITADKSTSTAYMELSSLRSEDTAVYYCARVAYGAFDIWGQGTMVTVSS
VL: EIVMTQSPATLSVSPGERATLSCRASQSVSSSYLAWYQQKPGQAPRLLIYGASTRATGIPARFSGSGSGTEFTLTISSLQSEDFAVYYCQQYNNWPLTFGGGTKVEIKR
notes: IgG1; also called ST2 Antibody 70

In the assay the target is T1, Human ST2. The experiment in a line: SPR (Carterra), antibody immobilized, ST2 analyte. Here is the method: Binding of the reformatted human ST2 antibodies to the human and mouse ST2 proteins was evaluated by surface plasmon resonance (SPR), using a high throughput antibody screening and characterization platform from Carterra (Salt Lake City, Utah).
B1 yielded a Kd of 366 nM, a koff of 0.12 s⁻¹ and a kon of 330000 M⁻¹ s⁻¹.
Molecule B2 displayed a Kd of 71 nM, a koff of 0.068 s⁻¹ and a kon of 960000 M⁻¹ s⁻¹.
On the same counts, the results for B3 are 628 nM, 0.14 s⁻¹ and 220000 M⁻¹ s⁻¹.
Molecule B4 yielded a Kd of 704 nM, a koff of 0.13 s⁻¹ and a kon of 190000 M⁻¹ s⁻¹.
On the same counts, the results for B5 are 1000 nM, 0.19 s⁻¹ and 190000 M⁻¹ s⁻¹.
Regarding B6, binding was characterised by a dissociation constant (Kd) of 603 nM, the koff was 0.085 s⁻¹ and the kon is 140000 M⁻¹ s⁻¹.
On the same counts, the results for B7 are 563 nM, 0.14 s⁻¹ and 260000 M⁻¹ s⁻¹.
On the same counts, the results for B8 are 176 nM, 0.0028 s⁻¹ and 16000 M⁻¹ s⁻¹.
On the same counts, the results for B9 are 71 nM, 0.029 s⁻¹ and 410000 M⁻¹ s⁻¹.
For B10, the Kd was determined as 96 nM, the koff was 0.043 s⁻¹ and the kon is 450000 M⁻¹ s⁻¹.
On the same counts, the results for B11 are 140 nM, 0.072 s⁻¹ and 510000 M⁻¹ s⁻¹.
With B12, the Kd is 912 nM, the koff was found to be 0.12 s⁻¹ and the kon stood at 140000 M⁻¹ s⁻¹.
On the same counts, the results for B13 are 1100 nM, 0.12 s⁻¹ and 110000 M⁻¹ s⁻¹.
On the same counts, the results for B14 are 335 nM, 0.082 s⁻¹ and 240000 M⁻¹ s⁻¹.
On the same counts, the results for B15 are 60 nM, 0.012 s⁻¹ and 200000 M⁻¹ s⁻¹.
The molecule B16 returned a Kd of 970 nM, a koff of 0.14 s⁻¹ and an on-rate (kon) of 150000 M⁻¹ s⁻¹.
For B17, in that order: 738 nM, 0.1 s⁻¹ and 140000 M⁻¹ s⁻¹.
For B18, in that order: 268 nM, 0.099 s⁻¹ and 370000 M⁻¹ s⁻¹.
